Assay results published in the supplement of paper PMC7877785.
± gives the uncertainty stated by the source.

Assay: self-splicing fitness, log relative to wild type (ln ratio); higher = more splicing; Tetrahymena group I intron in knt gene, E. coli kanamycin selection, DiMSum; sequences stand for … in CUCUCU…GGAGGGAAAAGUUAUCAGGCAUGCACCUGGUAGCUAGUCUUUAAACCAAUAGAUUGCAUCGGUUUAAAAGGCAAGACCGUCAAAUUGCGGGAAAGGGGUCAACAGCCGUUCAGUACCAAGUCUCAGGGGAAACUUUGAGAUGGCCUUGCAAAGGGUAUGGUAAUAAGCUGACGGACAUGGUCCUAACCACGCAGCCAAGUCCUAAGUCAACAGAUCUUCUGUUGAUAUGGAUGCAGUUCACAGACUAAAUGUCGGUCGGGGAAGAUGUAUUCUUCUCAUAAGAUAUAGUCGGACCUCUCCUUAAUGGGAGCUAGCGGAUGAAGUGAUGCAACACUGGAGCCGCUGGGAACUAAUUUGUAUGCGAAAGUAUAUUGAUUAGUUUUGGAGUACUCGUGGUCG
In short: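 Library with all eight P1ex-region intron nucleotides randomised, intron inside the knt kanamycin-resistance gene on pET-22b(+), in E. coli BL21(DE3). Cells grew overnight at 37°C or 30°C on LB agar with or without 25 μg/mL kanamycin (plus 100 μg/mL carbenicillin, 50 μM IPTG, 0.2% rhamnose), in six replicate transformations. Pooled colonies were amplicon-sequenced on Illumina HiSeq 2500. DiMSum fitness is the error-weighted combination of wild-type-normalised replicate fold changes, kanamycin versus none.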

Sequence | self-splicing fitness (ln) (30 °C) | self-splicing fitness (ln) (37 °C)
AAAAAGCAAUAUUACGACUG | -1.14 ± 0.098 | -0.0274 ± 0.11
CAUGAGCAAUAUUACGUAAA | -3.16 ± 0.15 | -3.43 ± 0.32
UACAAGCAAUAUUACGCGCA | -0.13 ± 0.081 | 0.163 ± 0.11
CUUGAGCAAUAUUACGUGCU | -1.93 ± 0.11 | -3.89 ± 0.42
GAAGAGCAAUAUUACGCACA | -1.91 ± 0.16 | -1.07 ± 0.14
UCCGAGCAAUAUUACGAGGU | -3.89 ± 0.34 | –
ACAAAGCAAUAUUACGUAGC | -2.35 ± 0.086 | -2.01 ± 0.12
GUGGAGCAAUAUUACGCCUU | -2.3 ± 0.31 | -1.09 ± 0.22
CAUAAGCAAUAUUACGGUCU | -2.8 ± 0.3 | -1.51 ± 0.2
UUCCAGCAAUAUUACGAGCA | -1.08 ± 0.098 | -0.767 ± 0.13
UAACAGCAAUAUUACGUUAC | -3.91 ± 0.2 | -3.09 ± 0.24
CAUGAGCAAUAUUACGAAGA | – | -2.3 ± 0.26
GCGAAGCAAUAUUACGGUGC | -3.75 ± 0.18 | -2.95 ± 0.18
CUACAGCAAUAUUACGUAGA | -4.4 ± 0.21 | -2.56 ± 0.14
AACUAGCAAUAUUACGAUUA | -0.307 ± 0.087 | -0.0303 ± 0.11
GCUAAGCAAUAUUACGGGAG | -3.12 ± 0.34 | -1.28 ± 0.17
GACGAGCAAUAUUACGCAGA | -3.74 ± 0.33 | -3.45 ± 0.42
ACGAAGCAAUAUUACGUGCG | -1.35 ± 0.074 | -1.36 ± 0.089
CCGCAGCAAUAUUACGGCCG | -0.461 ± 0.12 | 0.198 ± 0.15
ACUAAGCAAUAUUACGCCCC | -0.566 ± 0.13 | 0.127 ± 0.17
UUUUAGCAAUAUUACGUAAU | -3.62 ± 0.28 | -1.6 ± 0.22
GUGAAGCAAUAUUACGUCUC | -0.941 ± 0.11 | -0.553 ± 0.12
ACAGAGCAAUAUUACGAUAC | -1.87 ± 0.35 | –
UGUUAGCAAUAUUACGUGUU | -3.3 ± 0.29 | -3.27 ± 0.47
CGUUAGCAAUAUUACGUUUU | -4.77 ± 0.27 | -2.99 ± 0.17

Sequence | self-splicing fitness (ln) (30 °C) | self-splicing fitness (ln) (37 °C)
GGCAAGCAAUAUUACGUACC | -1.35 ± 0.065 | -0.299 ± 0.083
GGAGAGCAAUAUUACGUCCG | -1.5 ± 0.1 | -0.937 ± 0.13
CCCAAGCAAUAUUACGUAUA | -2.91 ± 0.23 | -3.24 ± 0.23
GGUCAGCAAUAUUACGCCUA | -0.826 ± 0.12 | -0.243 ± 0.14
UCACAGCAAUAUUACGUGAG | -0.886 ± 0.03 | -0.396 ± 0.052
UACGAGCAAUAUUACGAAGU | -4.33 ± 0.39 | -2.41 ± 0.24
CCGCAGCAAUAUUACGGAUG | -1.99 ± 0.12 | -1.54 ± 0.13
CAACAGCAAUAUUACGCAGA | -3.45 ± 0.14 | -1.35 ± 0.075
GCCCAGCAAUAUUACGCCUU | -1.02 ± 0.081 | 0.189 ± 0.088
UGCUAGCAAUAUUACGGGCC | -1.55 ± 0.14 | -1.33 ± 0.15
ACGAAGCAAUAUUACGAACC | -1.75 ± 0.14 | -0.895 ± 0.19
CGAAAGCAAUAUUACGGCGU | -0.379 ± 0.074 | 0.313 ± 0.11
GUGCAGCAAUAUUACGACGU | -0.779 ± 0.11 | 0.0794 ± 0.13
GUUCAGCAAUAUUACGAGCU | -3.34 ± 0.32 | -3.72 ± 0.39
ACUGAGCAAUAUUACGGGCG | -2.3 ± 0.15 | -1.01 ± 0.18
GGGGAGCAAUAUUACGGAAC | – | -2.95 ± 0.26
AAUCAGCAAUAUUACGGGAC | -3.57 ± 0.18 | -1.4 ± 0.096
CGUAAGCAAUAUUACGCCUG | -1.21 ± 0.11 | -0.643 ± 0.12
UCCGAGCAAUAUUACGGAAU | -1.91 ± 0.14 | -1.77 ± 0.2
AGUAAGCAAUAUUACGGUCC | -0.766 ± 0.061 | -0.91 ± 0.08
UCCUAGCAAUAUUACGCCAU | -2.5 ± 0.3 | -0.725 ± 0.35
CCCGAGCAAUAUUACGCAUG | -3.7 ± 0.15 | -2.64 ± 0.15
CCUCAGCAAUAUUACGCCAC | -3.18 ± 0.36 | -2.12 ± 0.41
UGAGAGCAAUAUUACGCGUU | -3.23 ± 0.2 | -3.69 ± 0.34
